Source: patent US20240389562

What was measured:
Assay in all cases: cell_activity
[1] = tested on: XTN TALEN 1 right monomer; settings: Cel-1 assay, value for the pair
[2] = tested on: XTN TALEN 3 right monomer; settings: Cel-1 assay, value for the pair
[3] = tested on: XTN TALEN 1 left monomer; settings: Cel-1 assay, value for the pair
[4] = tested on: XTN TALEN 3 left monomer; settings: Cel-1 assay, value for the pair
[5] = tested on: XTN TALEN 2 left monomer; settings: Cel-1 assay, value for the pair; most active
[6] = tested on: XTN TALEN 2 right monomer; settings: Cel-1 assay, value for the pair; most active

## AGTGCAGGGAGCCACA (double strand) [TALEN 1 right half-site]
[1]
  activity: 5%

## GTCATTGAGCAAATGCA (double strand) [TALEN 3 right half-site]
[2]
  activity: 3%

## TATGCGGACCTTTATCTA (double strand) [TALEN 1 left half-site]
[3]
  activity: 5%

## TCTGCCAACCTCACAT (double strand) [TALEN 3 left half-site]
[4]
  activity: 3%

## TGCAGTATGCGGACCTT (double strand) [TALEN 2 left half-site]
[5]
  activity: 9%

## TTCCTAAGTGCAGGGA (double strand) [TALEN 2 right half-site]
[6]
  activity: 9%
